We go through 3 substances from patent publication US6441131B1, “Peptides, method for assaying human pepsinogen II or human pepsin II, and assaying kit” (Ono Pharmaceutical Co., Ltd., priority 1997, dated 2002).

Non-standard residues stand in square brackets, D forms with d. Primed or numbered codes have the meaning given here. No end group written: not given here. *: point of attachment. DCHA″ = 3,5-dichloro-4-hydroxyaniline residue, Oc1c(Cl)cc(N*)cc1Cl; 2Nal = N[C@@H](Cc1ccc2ccccc2c1)C(=O)O; pNA = O=[N+]([O-])c1ccc(N*)cc1; Sar = CNCC(=O)O

human pepsin I, sequence (P0DJD7 63-388): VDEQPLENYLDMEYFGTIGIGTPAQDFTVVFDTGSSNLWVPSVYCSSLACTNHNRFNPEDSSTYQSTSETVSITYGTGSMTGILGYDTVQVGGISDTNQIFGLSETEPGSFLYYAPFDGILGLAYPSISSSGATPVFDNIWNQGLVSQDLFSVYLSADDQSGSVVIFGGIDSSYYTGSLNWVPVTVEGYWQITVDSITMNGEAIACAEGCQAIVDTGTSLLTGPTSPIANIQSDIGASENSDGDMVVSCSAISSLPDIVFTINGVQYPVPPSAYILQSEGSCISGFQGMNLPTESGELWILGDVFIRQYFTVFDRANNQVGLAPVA

The first assay concerns the target human pepsin I (Homo sapiens, UniProt P0DJD7). The assay can be described thus: Digesting of the peptide substrate by human pepsin I (assay by HPLC). The class given is biochemical. The conditions noted are these: peptide 0.5 mM, tartaric acid or glycine buffer pH2.0, 37° C., released amino acid derivative (II-A) by HPLC. Here is the method: (§1) Tartaric acid buffer or glycine buffer (pH2.0) containing each peptide (0.5 mM) prepared in Examples 1 and 2(3) etc. (Examples in Table 3 described hereinafter).
(§2) An aqueous solution of human pepsin I or human pepsin II (0.01 mg/ml)
(§3) Enzyme solution I (0.1 ml) was added to Reagent (1.0 ml). After incubation of the mixture at 37° C. for 10, 30, 60 minutes, the mixture solution (0.3 ml) was collected. To the collected solution, 2N-NaOH (0.025 ml) was added to terminate the reaction. After addition of 2N-HCl (0.025 ml) to the mixture, protein was removed by the ultrafiltration. The assaying the amino acid derivatives of the formula (II-A) [drawing 19]
(§4) which was released after digesting by human pepsin in the obtained solution was carried out by HPLC using C18 column. The ratio of digesting rate of pepsin II/pepsin I was calculated according to the result from assay by HPLC. Such assay is carried out to confirm that a substrate was digested by pepsin I or pepsin II correctly and that the amino acid derivatives of the formula (II-A) were released.
With “Nα-Me-GlyLeuSerGluAla(2-Naph)Ala-pNA.TFMSA ([Sar]LSE[2Nal]A-pNA; also: TFMSA salt) [Example 2(70)]”, the “pepsin I digesting rate” value was found to be 0.3128 μM/min · 1 μg Enz.

As for “Nα-Me-GlySerGlyAla(2-Naph)AlaAla-DCHA.TFMSA ([Sar]SG[2Nal]AA-{DCHA″}; also: TFMSA salt) [Example 2(84)]”, the “pepsin I digesting rate” value came out at 0.2767 μM/min · 1 μg Enz.

In the case of “ProLeuSerGluAla(2-Naph)Ala-pNA (PLSE[2Nal]A-pNA) [Example 1]”, the “pepsin I digesting rate” value came out at 0.2795 μM/min · 1 μg Enz.

The target in a further assay is T1, human pepsin II (Homo sapiens, UniProt P20142).
T1 sequence (P20142 60-388): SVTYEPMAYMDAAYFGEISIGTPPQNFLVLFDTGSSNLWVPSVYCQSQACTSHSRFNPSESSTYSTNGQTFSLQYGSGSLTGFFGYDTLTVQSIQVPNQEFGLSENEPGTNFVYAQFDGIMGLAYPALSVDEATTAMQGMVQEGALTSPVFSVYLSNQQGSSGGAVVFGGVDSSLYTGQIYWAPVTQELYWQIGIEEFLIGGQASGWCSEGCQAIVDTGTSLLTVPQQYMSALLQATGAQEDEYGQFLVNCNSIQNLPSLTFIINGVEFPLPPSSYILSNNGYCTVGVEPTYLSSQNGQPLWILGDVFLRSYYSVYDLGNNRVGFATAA
Briefly: Digesting of the peptide substrate by human pepsin II (assay by HPLC). In kind it is biochemical. The conditions noted are these: calculated from the HPLC digesting rates, pepsin II over pepsin I. How it is done: as §1, §2, §3, §4
Take “Nα-Me-GlyLeuSerGluAla(2-Naph)Ala-pNA.TFMSA ([Sar]LSE[2Nal]A-pNA; also: TFMSA salt) [Example 2(70)]”: the “ration of digesting rate (pepsin II/ pepsin I)” value (from here on “ration of digesting rate”) is 158.4.

As for “Nα-Me-GlySerGlyAla(2-Naph)AlaAla-DCHA.TFMSA ([Sar]SG[2Nal]AA-{DCHA″}; also: TFMSA salt) [Example 2(84)]”, the “ration of digesting rate” value is recorded as 119.5.

Consider “ProLeuSerGluAla(2-Naph)Ala-pNA (PLSE[2Nal]A-pNA) [Example 1]”, for which the “ration of digesting rate” value is on record as 198.2.

Still in this assay, the particulars now being: peptide 0.5 mM, tartaric acid or glycine buffer pH2.0, 37° C., released amino acid derivative (II-A) by HPLC.
Regarding “Nα-Me-GlyLeuSerGluAla(2-Naph)Ala-pNA.TFMSA ([Sar]LSE[2Nal]A-pNA; also: TFMSA salt) [Example 2(70)]”, the “pepsin II digesting rate” value was 49.56 μM/min · 1 μg Enz.

Take “Nα-Me-GlySerGlyAla(2-Naph)AlaAla-DCHA.TFMSA ([Sar]SG[2Nal]AA-{DCHA″}; also: TFMSA salt) [Example 2(84)]”: the “pepsin II digesting rate” value was 33.07 μM/min · 1 μg Enz.

Consider “ProLeuSerGluAla(2-Naph)Ala-pNA (PLSE[2Nal]A-pNA) [Example 1]”, for which the “pepsin II digesting rate” value amounted to 55.40 μM/min · 1 μg Enz.
